Data set [1] in a line: Heat stability, residual antimicrobial activity. The data set is classed as physicochemical. The note with it: 120°C for 15 min. The protocol: (§1) The sensitivity of the purified bacteriocin towards different pH, temperature and proteases was evaluated. To determine pH and temperature resistance, the purified peptide was incubated at different pH values between 2.0–12.0 and temperatures 80, 100°C for 30 min and 120°C for 15 min. Different hydrolytic enzymes including pepsin, trypsin, chymotrypsin, proteinase K, pronase E and amylase were incubated with bacteriocin for 6 hours at 37°C to ensure their effect. The enzyme activity was terminated by heating at 80°C before the bacteriocin activity was confirmed.

For data set [2], the system named is E. coli. The data set can be described thus: Bactericidal effect by scanning electron microscopy. Conditions: 500 µg/ml purified peptide, 4 hours, 37°C, about 2×10^7 cells/ml; compared to untreated bacteria. The format is cell-based. The protocol: To examine the bactericidal activity, E.coli cells were grown in NB to an exponential phase, harvested by centrifugation. The pellet obtained was resuspended in fresh NB and aliquots of 5 ml containing about 2×10^7 cells/ml were incubated at 37°C for 4 hours with 500 µg/ml laterosporulin. Samples at 0, 2 and 4 hours interval were centrifuged and pellets were resuspended in 500 µl of phosphate buffer. Each sample was spread on a poly (L-lysine)-coated glass slides (18×18 mm) to immobilize bacterial cells and incubated at 30°C for 90 min. They were fixed with modified Karnovsky's fixative and dehydrated with a graded ethanol series.

A further data set deals with B.subtilis. Description: MIC, microtiter plate dilution assay. The format is cell-based. Conditions: purified laterosporulin, micro-titer plates, triplicates, 30°C, OD 600 nm, 48 h. The procedure: (§2) The MIC of bacteriocin for different strains was evaluated by using a microtiter plate dilution assay. Test strains were grown to logarithmic phase under optimal conditions (up to 0.3 OD) and the test was performed in triplicates. Each well of the microtiter plate was added with 200 µl of fresh nutrient medium and 50 µl of test strains in different rows. Subsequently, different dilutions (50 µl) of freshly prepared bacteriocin were added to each well. The first column of the microtiter plate was left as a blank while reading through an ELISA plate reader (Thermo Scientific). The microtiter plates were incubated at 30°C incubator and OD was measured at 600 nm at different time intervals.

For the next data set, the system named is S. aureus. The data set can be described thus: MIC, microtiter plate dilution assay. The data set is classed as cell-based. Conditions: purified laterosporulin, micro-titer plates, triplicates, 30°C, OD 600 nm, 48 h. The procedure:
as §2

The next data set addresses proteinase K (Parengyodontium album, UniProt P06873). The data set can be described thus: Resistance to proteolytic enzyme, residual antimicrobial activity. The format is in vitro ADME. The note with it: 6 hours at 37°C, enzyme terminated by heating at 80°C. The procedure: as §1
The next data set deals with chymotrypsin. Described as above. The data set is classed as in vitro ADME. Conditions: 6 hours at 37°C, enzyme terminated by heating at 80°C. The protocol:
as §1

The next data set deals with trypsin. The data set is described as above. The data set is classed as in vitro ADME. The note with it: 6 hours at 37°C, enzyme terminated by heating at 80°C. The procedure:
as §1

In the next data set the test system is pronase E. Described as above. The format is in vitro ADME. Conditions: 6 hours at 37°C, enzyme terminated by heating at 80°C. The protocol:
as §1

In a further data set the test system is pepsin. The description is as above. The data set is classed as in vitro ADME. The note with it: 6 hours at 37°C, enzyme terminated by heating at 80°C. The procedure:
as §1

Data set [3] in a line: pH stability, residual antimicrobial activity. The format is physicochemical. The procedure: as §1
A short description of data set [4]: Treatment with dithiothreitol, residual antimicrobial activity. The format is physicochemical. The note with it: DTT used to disrupt disulfide bonds; data not shown.
Another data set has as its system L. monocytogenes. The data set can be described thus: Growth inhibition of test strain. Conditions: test strain L. monocytogenes (MTCC 839). The format is cell-based. The protocol:
(§3) The CFB of strain GI-9 was used to determine the antimicrobial activity. Culture was grown for 48 hours in nutrient broth (NB, Himedia) and subsequently cells were removed by centrifugation (10,000 rpm for 10 min, 4°C). The supernatant obtained was filtered by using 0.22 µm filter (Millipore). The filtrate was diluted by two fold dilution and amounts of 100 µl of different dilutions were used to test the activity. These dilutions were added to the wells that are prepared in plates containing nutrient agar medium seeded with test organism. Above test was also performed using minimal medium to check influence of the medium components on antimicrobial activity. A growth curve up to 24 hours was prepared for strain GI-9 to examine the bacteriocin production at different stages. One unit of bacteriocin was defined as the […] dilution that was given an inhibition zone around the well and reciprocal of this dilution is defined as the unit of antimicrobial activity per ml.

The test system of data set [5] is Gram-positive and Gram-negative bacteria. Description: Antibacterial spectrum. The data set is classed as cell-based. The note with it: wide range of Gram-positive and Gram-negative bacteria. The procedure: as §3
The MIC of bacteriocin for different strains was evaluated by using a microtiter plate dilution assay. […] The first column of the microtiter plate was left as a blank while reading through an ELISA plate reader (Thermo Scientific). The microtiter plates were incubated at 30°C incubator and OD was measured at 600 nm at different time intervals.

The test system of another data set is B. subtilis. Description: Growth inhibition assay of the synthetic partial peptide. The format is cell-based. Conditions: custom synthesized 19-mer, indicator strain B. subtilis. The text has this:
(§4) The molecular mass observed for laterosporulin by MALDI-TOF was 5605.8 Da ( Fig. 3 ), which is in good agreement with mass obtained by gel filtration chromatography ( Fig. 2A ). The N-terminal sequence of laterosporulin yielded partial sequence of ^1A(M)Q(C)QG(C/Q)PDAISGWTHTDYQCH^19 for two independently processed samples. The uncertainties at the 1st, 2nd and 4th positions obtained in N-terminal sequences were considered to predict the antibacterial activity of each possible peptide sequence using a database of peptides with known antimicrobial potency. […] To confirm the antimicrobial activity of this partial peptide, it was custom synthesized, mass was confirmed by MALDI-TOF and the synthetic peptide was examined in growth inhibition assays using indicator strains B. subtilis and E. coli.
(§5) To evaluate antibacterial function of the N-terminal peptide, a 19-mer peptide representing the N-terminal sequence of the bioactive protein was synthesized using standard Fmoc-chemistry on 2-chlorotrityl resin (0.2 mmol/g). Synthesis was carried out on a semi-automated synthesizer (PS-II) (Protein Technologies Inc., AZ USA). It was cleaved with TFA and purified by RP-HPLC system (Dionex, Ultimate-3000) using C-18 analytical column. The purified peptide was subjected to MALDI-TOF analysis for confirmation of molecular mass.

Data set [6] relates to E. coli. The description is as above. The data set is classed as cell-based. Conditions: custom synthesized 19-mer, indicator strain E. coli.
Text: as §4, §5

Chain of proteinase K (P06873 106-384): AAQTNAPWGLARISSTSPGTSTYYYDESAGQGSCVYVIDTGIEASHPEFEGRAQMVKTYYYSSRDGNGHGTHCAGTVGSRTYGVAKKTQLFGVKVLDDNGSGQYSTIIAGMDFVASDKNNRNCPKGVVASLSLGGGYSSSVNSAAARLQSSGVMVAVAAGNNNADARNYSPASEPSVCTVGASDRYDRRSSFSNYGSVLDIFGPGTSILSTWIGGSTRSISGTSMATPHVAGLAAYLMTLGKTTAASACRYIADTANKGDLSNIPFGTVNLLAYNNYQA

In the case of “^1A(M)Q(C)QG(C/Q)PDAISGWTHTDYQCH^19 [laterosporulin, 5.6 kDa bacteriocin purified from culture supernatant of Brevibacillus sp. strain GI-9]”, in [1], the “heat stability (antimicrobial activity after exposure)” value is “no reduction in antimicrobial activity”. The “bactericidal effect, cell morphology by SEM” value in the data set on E. coli [2] was “significant modifications in cell shape and morphology”. The “MIC (sensitivity in words, values only in Fig. 4)” value in the data set on B.subtilis and against S. aureus was “highly sensitive” each time. For the same substance, the “antimicrobial activity after incubation with proteinase K” value in the data set with proteinase K was “did not show any reduction”. In addition, the “antimicrobial activity after incubation with chymotrypsin” value with chymotrypsin is on record as “did not show any reduction”. Also, in the data set on trypsin, the “antimicrobial activity after incubation with trypsin” value is “did not show any reduction”. Besides, the “antimicrobial activity after incubation with pronase E” value in the data set on pronase E is given as “did not show any reduction”. Also, the “antimicrobial activity after incubation with pepsin” value in the data set on pepsin is on record as “did not show any reduction”. Moreover, the “pH stability (antimicrobial activity after incubation)” value is “reduced significantly” in data set [3] (above pH 10 (tested up to 12.0)) and “no reduction in antimicrobial activity” in [3] (pH between 2.0 to 10.0). Besides, the “antimicrobial activity after treatment with dithiothreitol (DTT)” value in [4] was “did not affect”. In addition, in the data set with L. monocytogenes, the growth inhibition result is “could inhibit the growth”. Also, the antibacterial activity entry in [5] is reported as “active”.

Take ACQCPDAISGWTHTDYQCH: the antimicrobial activity entry in the data set on B. subtilis and with E. coli [6] was “weak antimicrobial activity at significantly higher concentration” in each case.

The values are drawn from article PMC3293901, “Identification, Purification and Characterization of Laterosporulin, a Novel Bacteriocin Produced by Brevibacillus sp. Strain GI-9” (PLoS ONE, 2012).
